Molecular target: RGD peptide
Assay: single-molecule conductance, electrodes carrying RGD peptide

single-molecule conductance peak G: 0.3 nS
Substance: αvβ3 integrin (receptor)
